The text below walks through data of paper PMC9257043.

The assay has as its target recombinant SmFGFRA extracellular ligand binding domain (rSmFGFRA-L) (Schistosoma mansoni). The assay can be described thus: BLI; Octet RED 96; biotinylated rSmFGFRA-L immobilised on Streptavidin Biosensors, human aFGF/bFGF in dilution series as analyte; kinetic buffer (PBS with 15 mM NaCl, 0.1 mg/ml BSA, 0.002% Tween-20); association 1000 s, dissociation 1000 s; 30°C, 1000 rpm; double reference subtraction.

For “human acidic FGF (aFGF) (from UniProt P05230 16-155) (ligand)”, the Kd is 5.81 nM.

As to “human basic FGF (bFGF) (from UniProt P09038 143-288) (ligand)”, the Kd worked out at 0.36 nM.

A word on the Kd: it is a measure of binding affinity in units of concentration.
